{"source": "paper PMC2730168", "about": "(Molecular cell, 2009)", "key": {"[1]": {"target": "T1, Core RAG1 (384–1008) fused to MBP (MR1) (mouse, UniProt P15919 384-1008)", "T1 sequence (looked up)": "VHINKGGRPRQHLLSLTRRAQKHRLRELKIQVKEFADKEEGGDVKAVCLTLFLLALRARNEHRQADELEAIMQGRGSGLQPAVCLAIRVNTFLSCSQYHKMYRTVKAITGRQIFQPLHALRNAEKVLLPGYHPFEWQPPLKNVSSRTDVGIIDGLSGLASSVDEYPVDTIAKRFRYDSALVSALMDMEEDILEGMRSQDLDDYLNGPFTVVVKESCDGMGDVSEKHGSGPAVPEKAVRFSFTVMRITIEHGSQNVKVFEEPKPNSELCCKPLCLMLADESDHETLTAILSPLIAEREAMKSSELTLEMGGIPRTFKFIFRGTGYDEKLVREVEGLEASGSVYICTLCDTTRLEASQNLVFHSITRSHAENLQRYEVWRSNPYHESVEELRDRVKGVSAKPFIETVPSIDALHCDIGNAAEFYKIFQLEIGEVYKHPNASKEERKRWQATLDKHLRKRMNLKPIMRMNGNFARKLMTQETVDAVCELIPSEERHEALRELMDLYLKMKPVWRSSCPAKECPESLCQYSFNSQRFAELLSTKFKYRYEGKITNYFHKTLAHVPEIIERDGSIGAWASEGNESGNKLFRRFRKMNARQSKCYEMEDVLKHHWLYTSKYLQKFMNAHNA", "assay": "SEC"}, "[2]": {"target": "T2, Core RAG1 (384–1008) fused to MBP (MR1) (mouse), P15919", "T2 chain": "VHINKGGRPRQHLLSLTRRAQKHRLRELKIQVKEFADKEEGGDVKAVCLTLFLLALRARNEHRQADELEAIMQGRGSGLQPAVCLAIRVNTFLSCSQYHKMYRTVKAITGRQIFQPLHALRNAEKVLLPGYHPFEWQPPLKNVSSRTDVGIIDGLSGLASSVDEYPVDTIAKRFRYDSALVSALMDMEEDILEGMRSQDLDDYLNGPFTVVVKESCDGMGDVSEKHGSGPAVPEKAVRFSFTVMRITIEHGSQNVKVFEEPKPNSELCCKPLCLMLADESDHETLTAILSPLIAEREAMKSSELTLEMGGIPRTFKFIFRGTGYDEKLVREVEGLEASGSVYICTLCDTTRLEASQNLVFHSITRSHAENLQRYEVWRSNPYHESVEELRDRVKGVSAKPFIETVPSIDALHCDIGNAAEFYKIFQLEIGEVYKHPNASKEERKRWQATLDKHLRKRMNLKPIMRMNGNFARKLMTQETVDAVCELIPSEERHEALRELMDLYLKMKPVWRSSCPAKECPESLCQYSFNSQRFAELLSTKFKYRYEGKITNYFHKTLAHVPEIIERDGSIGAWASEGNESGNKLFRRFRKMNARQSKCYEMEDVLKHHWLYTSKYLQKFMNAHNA", "assay": "SEC-MALS", "details": "remark: other sources report otherwise"}}}
{"binder": "Core RAG2 fused to MBP with a PreScission protease site (LR2) (domain or fragment, mouse, UniProt P21784 1-387, looked up) MSLQMVTVGHNIALIQPGFSLMNFDGQVFFFGQKGWPKRSCPTGVFHFDIKQNHLKLKPAIFSKDSCYLPPLRYPATCSYKGSIDSDKHQYIIHGGKTPNNELSDKIYIMSVACKNNKKVTFRCTEKDLVGDVPEPRYGHSIDVVYSRGKSMGVLFGGRSYMPSTQRTTEKWNSVADCLPHVFLIDFEFGCATSYILPELQDGLSFHVSIARNDTVYILGGHSLASNIRPANLYRIRVDLPLGTPAVNCTVLPGGISVSSAILTQTNNDEFVIVGGYQLENQKRMVCSLVSLGDNTIEISEMETPDWTSDIKHSKIWFGSNMGNGTIFLGIPGDNKQAMSEAFYFYTLRCSEEDLSEDQKIVSNSQTSTEDPGDSTPFEDSEEFCFS", "values": [{"measurement": "stoichiometry N", "setting": "[1]", "result": "1 RAG1:RAG2"}]}
{"binder": "Core RAG1 (384–1008) fused to MBP (MR1), P15919 384-1008 (domain or fragment) VHINKGGRPRQHLLSLTRRAQKHRLRELKIQVKEFADKEEGGDVKAVCLTLFLLALRARNEHRQADELEAIMQGRGSGLQPAVCLAIRVNTFLSCSQYHKMYRTVKAITGRQIFQPLHALRNAEKVLLPGYHPFEWQPPLKNVSSRTDVGIIDGLSGLASSVDEYPVDTIAKRFRYDSALVSALMDMEEDILEGMRSQDLDDYLNGPFTVVVKESCDGMGDVSEKHGSGPAVPEKAVRFSFTVMRITIEHGSQNVKVFEEPKPNSELCCKPLCLMLADESDHETLTAILSPLIAEREAMKSSELTLEMGGIPRTFKFIFRGTGYDEKLVREVEGLEASGSVYICTLCDTTRLEASQNLVFHSITRSHAENLQRYEVWRSNPYHESVEELRDRVKGVSAKPFIETVPSIDALHCDIGNAAEFYKIFQLEIGEVYKHPNASKEERKRWQATLDKHLRKRMNLKPIMRMNGNFARKLMTQETVDAVCELIPSEERHEALRELMDLYLKMKPVWRSSCPAKECPESLCQYSFNSQRFAELLSTKFKYRYEGKITNYFHKTLAHVPEIIERDGSIGAWASEGNESGNKLFRRFRKMNARQSKCYEMEDVLKHHWLYTSKYLQKFMNAHNA", "values": [{"measurement": "stoichiometry N", "setting": "[2]", "result": 2}]}
{"binder": "HMGB1 (1–163) (domain or fragment, UniProt P09429 1-163, looked up) MGKGDPKKPRGKMSSYAFFVQTCREEHKKKHPDASVNFSEFSKKCSERWKTMSAKEKGKFEDMAKADKARYEREMKTYIPPKGETKKKFKDPNAPKRPPSAFFLFCSEYRPKIKGEHPGLSIGDVAKKLGEMWNNTAADDKQPYEKKAAKLKEKYEKDIAAYR", "values": [{"measurement": "stoichiometry N", "setting": "[1]", "result": "~0.5", "unit": "per RAG1"}]}
